This is an account of results in patent US6844486 (TEMASEK LIFE SCIENCES LABORATORY, dated 2005).

The target of this test is T1, GAL4 DNA binding domain-NAC1 fusion, first 199 amino acids of NAC1 (plasmid pGBNAC1 1-199) (Arabidopsis thaliana).
T1 construct: Yeast two-hybrid bait used as the fixed partner for testing the deletions; also called pGBNACl1-199; 199 amino acid version
Put plainly: yeast two-hybrid in HF7c, HIS3 reporter. The text has this:
Two-hybrid analysis (Bartel et al., 1993; Fields and Song, 1989; Chevray and Nathans, 1992; Lee et al., 1995) was applied to dimerization analysis. The yeast strain HF7c (MATa ura3–52 his3–200 ade2–101 lys2–801 trp1–901 leu2–3,112 gal4–542 gal 80–538 LYS2::GAL1$UAS$-GAL1$TATA$-HIS3 URA3::GAL4_{17mers(x3)}-CyC1$TATA$-LacZ which contains the two reporter genes LacZ and HIS3 was used. Yeast cotransformation with plasmids carrying the different Gal4 DNA binding domain and the Gal4 activation domain fusion was performed by methods known to those of skill in the art. See, e.g., Burke and Olson, 1986; Rudolph et al., 1985; Sakai et al., 1984. Other conditions have been described in detail elsewhere and are well known to those of skill in the art. To corroborate the interaction between the two fusion proteins, â-galactosidase activity was assayed by a replica filter assay.

B1: GAL4 activation domain-NAC1 fusion, NAC1 amino acids 143 to the C-terminus (plasmid pGANAC1 143-324) (other, not shown: large carriers; small tags and cut ends)
chain: FRLQGSHHPPNHSLSSPKEDWVLCRVFHKNTEGVICRDNMGSCFDETASASLPPLMDPYINFDQEPSSYLSDDHHYIINEHVPCFSNLSQNQTLNSNLTNSVSELKIPCKNPNPLFTGGSASATLTGLDSFCSSDQMVLRALLSQLTKIDGSLGPKESQSYGEGSSESLLTDIGIPSTVWNC
notes: Yeast two-hybrid prey
For the molecule B1, the binding result is “no binding”.

B2: GAL4 activation domain-NAC1 fusion, first 142 amino acids of NAC1 (plasmid pGANAC1 1-142) (other, not shown: large carriers)
chain: METEEEMKESSISMVEAKLPPGFRFHPKDDELVCDYLMRRSLHNNHRPPLVLIQVDLNKCEPWDIPKMACVGGKDWYFYSQRDRKYATGLRTNRATATGYWKATGKDRTILRKGKLVGMRKTLVFYQGRAPRGRKTDWVMHE
notes: Yeast two-hybrid prey
Consider B2, for which the binding result is recorded as “no binding”.
